In PMC7831708:

Biological target: recombinant human PD-1 (human) (UniProt Q15116)
Test: ELISA

UniProt Q15116, sequence (Q15116 25-170): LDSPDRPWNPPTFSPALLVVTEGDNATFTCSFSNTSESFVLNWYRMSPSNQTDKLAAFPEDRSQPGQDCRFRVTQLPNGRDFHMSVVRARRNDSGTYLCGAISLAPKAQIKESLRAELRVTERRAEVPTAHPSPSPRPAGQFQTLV

- EC50: 2.88 nM
Substance: Recombinant cynomolgus monkey PD-L1.mFc (Fc fusion)
